The term IC50 denotes the midpoint of a concentration-inhibition curve.

We go through one molecule from patent publication US20220257706A1, “EPIDERMAL GROWTH FACTOR RECEPTOR (EGFR) LIGANDS” (NANYANG TECHNOLOGICAL UNIVERSITY, priority 2019, published 2022).

In one assay the target is EGFR-Fc, P00533. Briefly: TR-FRET competitive displacement of biotin-EGF from EGFR-Fc. On the technique in general: In TR-FRET formats the signal depends on donor and acceptor labels being close together.
Assay [1] deals with EGFR of HaCaT (human keratinocyte) cells (human), P00533. Briefly: cell-based or functional assay.

In the assay with EGFR-Fc, P00533, QCKPNGAKCTEISIPPCCSNFCLRYAGQKSGTCANR (modifications not checked) [bleogen pB1] returned an IC50 of 1720 nM. The HaCaT cell proliferation (crystal violet, 72 h), EC50 in assay [1] is 130 nM.
